The source of these data is publication PMC12661054, “The CIP2A-TOPBP1 axis facilitates mitotic DNA repair via MiDAS and MMEJ” (Nature Communications, 2025).

Square brackets hold non-standard residues; d marks the D form. Ends that are not written are not given here. fluorescein = fluorescein label on the N-terminus; pT = C[C@@H](OP(=O)(O)O)[C@H](N)C(=O)O

This assay concerns the target T1, GST-TOPBP1(BRCT0-2 1-290) K250E (human, UniProt Q92547 1-290, K250E).
T1 construct: TOPBP1, human, residues 1-290 (BRCT0-2); purified as the wild type; no cleavage of GST described; also called BRCT 2 (K250E); source: E. coli BL21(DE3), purified (HiTrap GST, Superdex 200)
Briefly: fluorescence polarisation; 100 nM fluorescein-labelled SLX4 peptide, increasing concentrations of TOPBP1 BRCT fragment; room temperature; 25 mM HEPES pH 7.5, 150 mM NaCl, 1 mM EDTA, 0.25 mM TCEP, 0.002% Tween 20; single site with non-specific component. The settings on record: both partners purified. In general terms: In fluorescence polarisation assays a small probe gives low polarisation when free and higher when bound to something large.

B1: Flu-SLX4_pT1260 (peptide)
peptide: fluorescein-GYGTSWLVPA[pT]PLASRSR
modifications: also: phosphothreonine at Thr1260 (position 4 or 11)
notes: residues before the SLX4 stretch, not SLX4; SLX4, human, amino acids 1253-1267, pT1260; also called fluorescein tagged SLX4 pT1260-containing peptide; pThr1260 SLX4 peptide; source: synthetic peptide
B1: the binding result was “binds”.
